± gives the standard deviation of the averaged measurements.
System: Saccharomyces cerevisiae
Assay: protein stability index of tFT-peptide fusion (C-terminal peptide) (PSI (0-1 scale)); higher = more stable (slower turnover)
Details: genetic background: wild type; temperature: 30 C
Procedure: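 Multiplexed protein stability (MPS) profiling in S. cerevisiae. Random 12-aa peptides (tFT-X12 library) are fused to the C-terminus of a sfGFP-mCherry tandem fluorescent timer, after mCherry and a GGGS linker. Cells are FACS-sorted into 8 mCherry/sfGFP bins and deep-sequenced. The protein stability index (PSI) is the read-weighted bin average, scaled from 0 (unstable) to 1 (stable). Only peptides with >10 reads are reported; cells were grown at 30 °C in SC-His with glucose.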
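Note: PSI is a weighted mean of sequencing reads over stability bins, variants kept only with over 10 reads, mCherry proximal and sfGFP distal, peptide attached via GGGS linker.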

Sequence	protein stability index
HTPPMVGMLCLG	0.6 ± 0.032
VWGIIQTDRMGR	0.744 ± 0.017
GDCIDCFKLVGI	0.711 ± 0.035
SPLTSSSLPPRT	0.691 ± 0.032
SSGRRFVVVVQG	0.572 ± 0.026
KKITKPKSQRLV	0.669 ± 0.014
SGASFLKVGLSV	0.6812 ± 0.0032
VGVRRAGGARGW	0.634 ± 0.088
ELVRIVREEYRC	0.685 ± 0.1
PTGRGRSAYLVL	0.6875 ± 0.0058
RPLPPPPAPPPL	0.706 ± 0.029
RRTRRSTGHATG	0.665 ± 0.043
PSTHPPTLPRPC	0.712 ± 0.024
CSVCMSSSRLFS	0.733 ± 0.014
RTPYFGPLAQIA	0.622 ± 0.023
VLGSSSKLGSLS	0.647 ± 0.025
ASHPESHIAWPA	0.691 ± 0.03
VVGRGGGFVGPG	0.616 ± 0.026
PPFTPLSCLPPP	0.708 ± 0.038
KREKGLKQIVRL	0.6827 ± 0.0029
VIRGVVPVVRSV	0.668 ± 0.037
VGWCTGWFVGLV	0.6652 ± 0.0063
LRLPKGVSLVDI	0.6093 ± 0.0053
WVVRVMYTSSGK	0.556 ± 0.035
NTQLPASPVSQG	0.628 ± 0.027

Sequence	protein stability index
SKPTQQNRRPDG	0.596 ± 0.028
KFNNIQNWRLAY	0.787 ± 0.098
KYNKQRQTRIET	0.663 ± 0.019
FLVEPSGRSATW	0.741 ± 0.16
DLWTRGAVHRKA	0.6756 ± 0.0061
YDELEKADKQEE	0.6723 ± 0.0061
GRNMQVTVQNRG	0.735 ± 0.02
LVSLSPCPSSPL	0.671 ± 0.014
LTTPTIAKTREN	0.691 ± 0.016
SFVLFAGPVFFW	0.655 ± 0.025
WVNRFVFFSPST	0.615 ± 0.11
TSMRRWSGRYGG	0.743 ± 0.075
FMFELSPVDEWA	0.791 ± 0.043
SVSLSLLFFLPF	0.675 ± 0.025
DLCSPWGVDGVK	0.696 ± 0.00079
GCFLSERLFTPL	0.7304 ± 0.00085
SFGLGGSFFWVG	0.7 ± 0.035
PPPAPRRTRRPS	0.698 ± 0.047
LVGTFTEKFRVC	0.578 ± 0.023
NGGSAKVYLGKI	0.652 ± 0.019
PSPPSRFPPCTP	0.76987 ± 0.00013
RCLRYFVWRLGW	0.709 ± 0.12
WHGLLEWLAWRT	0.736 ± 0.078
GRKAEAEASLFS	0.643 ± 0.1
PFPPPRPPPAPP	0.613 ± 0.023

Sequence	protein stability index
RPNTVHLQALYN	0.6802 ± 0.0046
IKIKKKKKRNKR	0.685 ± 0.057
SSALSLVSSFLP	0.705 ± 0.05
EVIRFMEKLPFR	0.589 ± 0.025
SEFDSVSRIVYY	0.705 ± 0.048
SRVTVLGGWRRG	0.701 ± 0.034
PATPSPLSSSAP	0.711 ± 0.039
SRCRASMPPLRA	0.684 ± 0.034
RKVYHSTRNTRK	0.702 ± 0.11
VGGRAAIVRGGW	0.6853 ± 0.0026
PPRPPPLSPAPP	0.7 ± 0.069
SWFLLEVLSDFK	0.649 ± 0.014
LPRSAPLHFPAC	0.688 ± 0.02
RRVYGRELHPSQ	0.731 ± 0.029
IAEWVRLIVGEG	0.671 ± 0.015
NKRKTKNKERRA	0.65 ± 0.012
FSRGRAVRVRRT	0.728 ± 0.21
LISLERRGVAGR	0.657 ± 0.043
PSPPTPHPPCRS	0.746 ± 0.013
KDKGEKEKRRTK	0.719 ± 0.077
GSCTVLPPPGPP	0.724 ± 0.018
SLPGVRVPRVGR	0.715 ± 0.059
CGLCLGGEWLVG	0.701 ± 0.026
ESKERKTRKLKK	0.677 ± 0.048
VLARPQAKAPLG	0.571

Sequence	protein stability index
CSGEGDQWLGVR	0.7139 ± 0.0028
WKETGRGTISHK	0.699 ± 0.013
PPASRPPPPTFL	0.699 ± 0.047
FVGWVAMGGSVV	0.731 ± 0.024
PPPPPSPPLSPI	0.728 ± 0.063
SRHFPLGTVHVP	0.756 ± 0.065
LSGGAVVEVHFL	0.674 ± 0.011
ESCLVSKFDVIV	0.656 ± 0.052
CRRHPLTVVPIL	0.619 ± 0.028
LHPLHSSSPRVS	0.704 ± 0.026
RFCRPLSHTALA	0.632 ± 0.028
RQFVTACPLWRH	0.676 ± 0.046
RWSVSLAVTVLL	0.503 ± 0.011
DLLYGLAMSLSN	0.704 ± 0.012
YCTAGVCVKAGR	0.765 ± 0.027
WCFVGLVNTCRI	0.617 ± 0.025
SRKIRTTLQESK	0.7219 ± 0.0071
PLSLPAPPPRPR	0.654 ± 0.017
VRVVGVSGGEGG	0.644 ± 0.027
LLFSTPWVWCLL	0.623 ± 0.051
VAWRQSVDLGLL	0.685 ± 0.047
WGGGVGWSGACL	0.734 ± 0.02
VVGRVGGFVGPG	0.677 ± 0.1
QDLLNVSSFTRS	0.727 ± 0.017
HPPPSNYWPSSA	0.658 ± 0.084

Sequence	protein stability index
TSGPVSCLCECL	0.598 ± 0.029
VGAFEGDWGVRH	0.671 ± 0.099
PPSPPPPPPPPL	0.7 ± 0.032
NFPPTPECSFVS	0.643 ± 0.0086
YSGSPPFPLSRL	0.801 ± 0.027
GGGGRGTAVVGV	0.66 ± 0.048
GLSVVFRIPPGS	0.735 ± 0.043
PPPPPRFSPHPP	0.695 ± 0.013
PFPRPVSPSPPP	0.743 ± 0.037
FFSPFSPALYTS	0.756 ± 0.014
PPLTPSPPRSFP	0.651 ± 0.08
TLTVRASLHLEP	0.636 ± 0.025
PPSVTLSEMTTG	0.642 ± 0.025
CGRLSNAAEPTC	0.792 ± 0.19
DTWRADKRGMKV	0.662 ± 0.052
LNLISGVRFSLY	0.675 ± 0.043
RHLFGTGIMPER	0.683 ± 0.12
WSVHGLGSVSIY	0.707 ± 0.014
ALLGIAGGQAAQ	0.714 ± 0.028
PFAVKYIFEVWK	0.591 ± 0.028
RGGGVVRGCSGG	0.679 ± 0.014
VLGGSMWLDLVC	0.781 ± 0.23
IKKKTNYMNEKI	0.661 ± 0.0096
KQQRTKKKEKKR	0.628 ± 0.097
DTFLGSLFIFIR	0.522 ± 0.011

Sequence	protein stability index
TDHTNCARDLGA	0.664 ± 0.054
LWGGAGLRCGGF	0.726 ± 0.017
VPLGFPPPPLDP	0.727 ± 0.038
SPPPIVPPPSPP	0.662 ± 0.12
EKKTNEKNSYNL	0.659 ± 0.016
KSRKEREKSDNQ	0.678 ± 0.037
RSRDDAGASLHL	0.6666 ± 0.0054
YCGGRWGGWEIG	0.684 ± 0.0037
NKKIKKDKIKGK	0.692 ± 0.031
CGGSWMRGLRDL	0.72 ± 0.043
TPLGLSVSSPPT	0.661 ± 0.14
SRGVSRGGGEVF	0.651 ± 0.027
PDGTGPLCAPEP	0.646 ± 0.059
SNTKLIGGFFRD	0.646 ± 0.1
RSHLLPPPRHQH	0.7333 ± 0.00099
GILNIRKALDGK	0.6477 ± 0.0026
LIIRTWEQILSP	0.692 ± 0.058
SRGRSFFAGVGG	0.722 ± 0.042
YNMGILASQGCG	0.665 ± 0.046
LLDGAGGGVGEG	0.738 ± 0.033
GWSVWFGLGGVW	0.689 ± 0.022
PPARPDCGIRTP	0.672 ± 0.026
TLPSHPRLLSLH	0.6965 ± 0.0013
QSRFFCDKKVWG	0.6934 ± 0.0049
PSPPPPPPPQPS	0.722 ± 0.059

Sequence	protein stability index
VFHCFVSRRRFC	0.65 ± 0.022
DFCPVYRVIIWN	0.646 ± 0.029
VRCGGPGRAGKG	0.63 ± 0.052
VGPLYFPWSLNF	0.692 ± 0.053
PRGYRGNCAYDV	0.636 ± 0.083
FPFSDFVFLFCF	0.57 ± 0.011
PPPRTPPDNHPN	0.7256 ± 0.0047
RLFCLRSVSLVS	0.572 ± 0.015
ERGGLGLSRCVS	0.663 ± 0.077
SDLDFSRLHGSA	0.698 ± 0.056
EVGLGAAGLSGP	0.749 ± 0.031
QPNDIEIYTLLT	0.652 ± 0.05
REEGIEKKEKIR	0.678 ± 0.03
FRYLAVSPFGGL	0.749 ± 0.057
RRVPTDQYRLLE	0.696 ± 0.027
AVPGLPLWWQPS	0.746 ± 0.028
VVRLTNGLFSIL	0.662 ± 0.0094
GWGGGGGGRGWG	0.71 ± 0.055
FGSPFPASRFTT	0.752 ± 0.082
VPPLRPVAPCRG	0.533 ± 0.014
VDHWVCWCGGWG	0.7734 ± 0.0072
GGALDQADGGRS	0.7269 ± 0.0014
PPPLPFPPSPPL	0.681 ± 0.063
DIAFFEGSGGTM	0.675 ± 0.096
PPGQPPARSSPV	0.706 ± 0.013

Sequence	protein stability index
PRRPLPPSPPRE	0.729 ± 0.022
IVLLNLTHVRSK	0.647 ± 0.024
CFCGGFGVFVIF	0.593 ± 0.014
GKITKNKDNIET	0.686 ± 0.021
STPPGTPGISRQ	0.723 ± 0.079
IFSSFCPASFFL	0.757 ± 0.031
LCRLTNVCGAVV	0.6543 ± 0.004
RRHGDVGFGVGW	0.82 ± 0.1
QSAGGTRAKFGG	0.658 ± 0.053
SINPRVYFVDCQ	0.689 ± 0.034
RKKRGKNEERQD	0.707 ± 0.056
SRGLVRGPMSGR	0.661 ± 0.053
GSWDEFGVYSRV	0.6126 ± 0.0058
AAASWRVRIGRG	0.7425 ± 0.004
HRCPSPPWFHPS	0.752 ± 0.071
RFCRSGCWFRWG	0.607 ± 0.015
HPLFCPPPPPLA	0.708 ± 0.036
LWRVRCGLGMSG	0.681 ± 0.15
ETSRTYGNFPIT	0.774 ± 0.11
AKLDMARGGGVV	0.645 ± 0.018
GYTRYYRLLQSR	0.642 ± 0.028

— the supplement of paper PMC10724198
